Measured values from patent publication US20200332017A1 (SALUBRIS CHENGDU BIOTECH, published 2020).

B1: mouse anti-CD40 monoclonal antibody C1C1 (antibody, V domains shown)
VH: EVKLVESGGGLVKPGASLKLSCAASGFTFSNYGMSWVRQNSDKRLEWVASISSGGDDTYYPDNVKGRCTISRENAKNTLYLEMSSLKTEDTALYYCTRAGGKAMDYWGQGTSVTVST
VL: DIVLTQSPATLSVIPGNSVSLSCRASQSIRDNLHWYQQKSHESPRLLINYASQSISGIPSRFSGSGSGTDFTLTINSVETEDFGIYFCQQFNSWPLTFGGGTKLELK
notes: those are used here for the chimeric antibody only; also called Mouse C1C1; mouse C1C1
B2: chimeric antibody C1C1 (antibody, human IgG1, kappa, V domains shown)
VH: B1 VH
VL: DIVLTQSPATLSVIPGNSVSLSCRASQSIRDNLHWYQQKSHESPRLLINYASQSISGIPSRFSGSGSGTDFTLTINSVETEDFGIYFCQQFNSWPLTFGGGTKLELKR
notes: also called chC1C1; chimeric C1C1

Legend:
[1] = target: T1, Human CD40-his protein (Acro biosystems, Cat # CD0-H5228) (human, UniProt P25942 21-193); test: SPR, Biacore; human CD40-his
T1 construct: Bought reagent; not shown: his tag
Source text: (§1) Briefly, goat anti-mouse IgG (GE healthcare, Cat # BR100838, Mouse Antibody Capture Kit) was covalently linked to a CM5 or a Protein G chip (carboxy methyl dextran coated chip) via primary amines, using a standard amine coupling kit provided by Biacore (GE healthcare, Pittsburgh, Pa., USA). Un-reacted moieties on the biosensor surface were blocked with ethanolamine. […] Then, human CD40-his (Acro biosystems, Cat # CD0-H5228) or cynomolgus monkey CD40-his protein (Acro biosystems, Cat # CD0-052H6) in HBS EP buffer (provided by Biacore) was flowed onto the chip at a flow rate of 30 μL/min. The antigen-antibody association kinetics was followed for 2 minutes and the dissociation kinetics was followed for 10 minutes. The association and dissociation curves were fit to a 1:1 Langmuir binding model using BIA evaluation software.

[2] = target: T2, human CD40-Fc protein (amino acid residue 21-193 of SEQ ID NO: 67 linked to N-terminus of amino acid residue … (human, biotin-labeled in the capture ELISA and in the benchmark blocking ELISA; unlabeled when coated in the ligand blocking ELISA); test: ligand blocking ELISA: human CD40-Fc coated, antibody titrated, then biotin-labeled human CD40L-his (blocked ligand), streptavidin-HRP, OD(450-630)
T2 construct: also called biotin-labeled human CD40-Fc; human CD40-Fc-biotin
Procedure: (§2) Serially diluted the mouse anti-CD40 antibodies of the present invention or the controls (starting at 200 nM with a four-fold serial dilution) in 2.5% w/v non-fatty milk in PBST were prepared to the plates and incubated with the human CD40-Fc proteins at room temperature for 40 minutes. […] Plates were washed again. 100 μl/well of streptavidin conjugated HRP was added and incubated for 40 minutes at 37° C. Plates were washed again using wash buffer. Finally, TMB was added and the reaction was stopped using 1M H₂SO₄, and the absorbance was read at 450 nm. Data were analyzed using Graphpad Prism software and IC₅₀ values were reported.

[3] = target: T2, human CD40-Fc protein (amino acid …); test: competitive ELISA; biotin human CD40-Fc in solution, competitor coated BM2
Procedure: The ability of the mouse anti-CD40 antibodies of the present invention to block the binding of the Benchmark to human CD40 was measured using a competitive ELISA assay. […] The next day, plates were washed with wash buffer, and blocked with 5% w/v non-fatty milk in PBST for 2 hours at 37° C. Plates were then washed again using wash buffer. […] After incubation at 37° C. for 40 minutes, plates were washed 4 times using wash buffer. Then streptavidin conjugated HRP was added and incubated for 40 minutes at 37° C. to detect biotin-labeled human CD40-Fc bound to plates. Plates were washed again using wash buffer. Finally, TMB was added and the reaction was stopped using 1M H₂SO₄, and the absorbance was read at 450 nm. Data were analyzed using Graphpad Prism software and IC₅₀ values were reported.

[4] = target: T2, human CD40-Fc protein (amino acid …); test: capture ELISA, biotin human CD40-Fc; mAb at 2000 ng/mL
Procedure: (§3) Plates were washed 4 times with wash buffer (PBS+0.05% Tween-20, PBST) and then blocked with 200 μl/well blocking buffer (5% w/v non-fatty milk in PBST) for 2 hours at 37° C. […] After a final wash, plates were incubated with 100 μl/well ELISA substrate TMB (Innoreagents, Cat # TMB-S-002). The reaction was stopped in 15 minutes at 25° C. with 50 μl/well 1M H₂SO₄, and the absorbance was read at 450 nm and plotted against antibody concentration. Data were analyzed using Graphpad Prism software and EC₅₀ values were reported.

[5] = target: full length human CD40 (uniprot # P25942-1) on the membrane of 293T-CD40 cells (human, UniProt P25942 21-277); test: cell-based or functional assay
[6] = target: T2, human CD40-Fc protein (amino acid …); test: competitive ELISA; coated human CD40-Fc, competitor biotin human CD40L-his
Procedure: Briefly, human CD40-Fc proteins (amino acid residue 21-193 of SEQ ID NO: 67 linked to N-terminus of amino acid residue 99-330 of SEQ ID NO.: 24) were coated on 96-well micro plates at 2 μg/mL in coating buffer (PBS) and incubated overnight at 4° C. The next day, plates were washed with wash buffer (PBS+0.05% Tween-20, PBST), and blocked with 5% w/v non-fatty milk in PBST for 2 hours at 37° C. Plates were then washed again using wash buffer.
as §2
In the capture ELISA test, a mouse control antibody targeting a protein other than CD40 was used.

[7] = target: T2, human CD40-Fc protein (amino acid …); test: capture ELISA, biotin human CD40-Fc; mAb at 0 ng/mL (blank)
Procedure: as §3

[8] = target: T3, cynomolgus monkey CD40-his protein (Acro biosystems, Cat # CD0-052H6) (cynomolgus monkey, UniProt G7PG38 21-193); test: SPR, Biacore; cynomolgus CD40-his
T3 construct: Bought reagent; also called Cynomolgus CD40-his
Source text: as §1

[9] = target: T2, human CD40-Fc protein (amino acid …); test: capture ELISA, biotin human CD40-Fc; mAb at 0.64 ng/mL
Procedure: as §3

[10] = target: T2, human CD40-Fc protein (amino acid …); test: competitive ELISA; coated human CD40-Fc, competitor biotin human CD40L-his; remark: listed apart in the source
Procedure: as §2

Binder | Kd [1] | IC50 (read off the curve) [2] | IC50 [3] | absorbance at 450 nm [4] | cell based functional assay (EC50, nM) [5] | IC50 [6] | absorbance at 450 nm [7] | Kd [8] | absorbance at 450 nm [9] | IC50 [10]
B1 | 3.62 nM | ~0.8 µg/mL | 0.461 nM | 1.75 OD450 | 2.51 nM | 5.4 nM | 0.124 OD450 | 2.35 nM | 0.142 OD450 | 5.4 nM
B2 | 5.98 nM | ~0.8 µg/mL | 0.126 nM | 1.83 OD450 | 3.28 nM | 4.83 nM | 0.028 OD450 | 2.34 nM | 0.035 OD450 | 4.83 nM
